According to US20230036060A1, “DUAL-CONTROLLED DRUG AND PHOTOACTIVATABLE SYSTEM FOR SPATIOTEMPORAL CONTROL OF CELL THERAPY” (THE REGENTS OF THE UNIVERSITY OF CALIFORNIA, priority 2019, published 2023):

B1: NLS-pMag-CreC: nucleus-localized C-terminal split-Cre protein half, SEQ ID NO: 1 (protein)
chain: PKKKRKVGGHTLYAPGGYDIMGYLRQIRNRPNPQVELGPVDTSCALILCDLKQKDTPIVYASEAFLYMTGYSNAEVLGRNCRFLQSPDGMVKPKSTRKYVDSNTINTMRKAIDRNAEVQVEVVNFKKNGQRFVNFLTMIPVRDETGEYRYSMGFQCETEGTNRKWFPAEPEDVRDYLLYLQARGLAVKTIQQHLGQLNMLHRRSGLPRPSDSNAVSLVMRRIRKENVDAGERAKQALAFERTDFDQVRSLMENSDRCQDIRNLAFLGIAYNTLLRIAEIARIRVKDISRTDGGRMLIHIGRTKTLVSTAGVEKALSLGVTKLVERWISVSGVADDPNNYLFCRVRKNGVAAPSATSQLSTRALEGIFEATHRLIYGAKDDSGQRYLAWSGHSARVGAARDMARAGVSIPEIMQAGGWTNVNIVMNYIRNLDSETGAMVRLLEDGD
modifications: Synthetic exemplary nucleic acid sequence for NLS-pMag-CreC
B2: myc-α-CD38 Receptor: c-myc-tagged α-CD38 anchoring receptor expressed in Jurkat T cells, SEQ ID NO: 8 (protein)
chain: MEFGLSWLFLVAILKGVQCSEQKLISEEDLDIQLTQSSSSFSVSLGDRVTITCKASEDIYNRLAWYQQKPGNAPRLLISGATSLETGVPSRFSGSGSGKDYTLSITSLQTEDVATYYCQQYWSTPTFGGGTKLEIKRADAAPTVSIFPPSGGGGSGGGGSGGGGSGGGGSQVQLKQSGPSLVQPSQRLSITCTVSGFSLISYGVHWVRQSPGKGLEWLGVIWRGGSTDYNAAFMSRLSITKDNSKSQVFFKMNSLQADDTAIYFCAKTLITTGYAMDYWGQGTSVTVSSAAAIEVMYPPPYLDNEKSNGTIIHVKGKHLCPSPLFPGPSKPFWVLVVVGGVLACYSLLVTVAFIIFWVRSKRS
modifications: Synthetic exemplary nucleic acid sequence for exemplary myc-alpha-CD38-Receptor

Assays:
[1] = tested on: EGFP Reporter HEK293T cells; assay: Cre-loxP recombination in EGFP Reporter HEK293T cells, % EGFP+ by flow cytometry normalized to Cre groups; format: cell-based; details: Dark, Ambient, Light (5 W/m^2, 7.5 s per min, 24 h); n=5
Source text: FIG. 2A is a schematic representation of the EGFP Reporter genetic construct before and after Cre-loxP recombination; the hEF1α promoter drives mCherry expression.
FIG. 3E graphically illustrates the number of recombined cells after recombination in TamPA-Cre-nH1^+ EGFP Reporter HEK293T cells subjected (Light) or not (Ambient, Dark) to Protocol B (n=3) of FIG. 3C; reporter is untransfected EGFP Reporter HEK293T cell line (n=3), blue light stimulation started and flow cytometry measurements taken 24 h and 72 h post-transfection, respectively; percentage of recombined HEK293T cells (normalized to maximal recombination)=100%*(% of EGFP^+ cells)/(mean % of EGFP^+ cells in corresponding Cre groups). […]
To compare the two photoactivatable split-Cre systems, EGFP Reporter HEK293T cells were or were not (Reporter) transiently transfected with either PA-Cre-C, PA-Cre-M, or Cre constructs (Fig. S1A-D). […] The percentage of EGFP^+ recombined cells in each cell group was determined by flow cytometry 24 h later. […]

[2] = tested on: CD38+ Toledo Target cells; assay: Activation of myc-α-CD38 Receptor Jurkat T cells upon binding to CD38+ Toledo Target cells; format: cell-based; details: Jurkat T cells stably expressing the receptor
Source text: FIG. 12D graphically illustrates representative histograms from flow cytometry showing that α-CD19-CAR-EGFP^+ Jurkat T cells both (I) bind to and (II) are activated by CD19^+ Toledo Target cells, while myc-α-CD38-Receptor^+ Jurkat T cells (III) bind to but (IV) are not activated by CD38^+ Toledo Target cells;
The TamPA-Cre system was next applied to induce CAR expression in the physiologically relevant Jurkat T cell line. […] Likewise, Jurkat T cells stably expressing myc-α-CD38 Receptor were not activated upon binding to CD38^+ Toledo Target cells, as expected (Fig. S6D).

| Molecule | Cre-loxP recombination by one split-Cre half alone versus Reporter [1] | T cell activation upon binding to Target cells [2] |
| --- | --- | --- |
| B1 | no significant difference | – |
| B2 | – | not activated |
